In publication PMC12691639:

Target: K62-HA (K62 killer toxin with a C-terminal hemagglutinin tag), expressed by S. cerevisiae (Saccharomyces paradoxus)

“K62-HA (K62 killer toxin with a C-terminal hemagglutinin tag), expressed by S. cerevisiae (natural protein)” showed a stoichiometry N of 2.
